Laboratory results from PMC7196836, “Molecular analysis of the ribosome recycling factor ABCE1 bound to the 30S post‐splitting complex” (The EMBO Journal, 2020).

Target: ribosomal protein uS12 of Thermococcus celer (T. celer (endogenous in T. celer cells), UniProt P29161 1-147)
Assay: cryo-EM structure; post-splitting complex from 1 nmol T. celer 70S split by ABCE1^IIEA (8 uM), aPelota and aRF1 (5 uM each), 0.5 mM AMP-PNP, 50 mM HEPES-KOH pH 7.5, 30 mM KCl, 10 mM MgCl2, 2 mM DTT, 65 °C 15 min; cross-linked with 1% formaldehyde; 30S fractions of a 10-30% sucrose gradient
Conditions: both partners purified

B1: ABCE1^IIEA (E238A/E485A), hydrolysis-deficient ABCE1 from Saccharolobus solfataricus (enzyme)
chain: MRVAVINYDFCKPDKCNLECINFCPVDRSGGKAIELSEIVKGKPVIYEETCIGCGICVKKCPYEAISIVNLPDELEGEVIHRYKVNGFKLFGLPTPKNNTILGVLGKNGVGKTTVLKILAGEIIPNFGDPNSKVGKDEVLKRFRGKEIYNYFKELYSNELKIVHKIQYVEYASKFLKGTVNEILTKIDERGKKDEVKELLNMTNLWNKDANILSGGGLQRLLVAASLLREADVYIFDAPSSYLDVRERMNMAKAIRELLKNKYVIVVDHDLIVLDYLTDLIHIIYGESSVYGRVSKSYAARVGINNFLKGYLPAENMKIRPDEIKFMLKEVSDLDLSKDLKTKMKWTKIIKKLGDFQLVVDNGEAKEGEIIGILGPNGIGKTTFARILVGEITADEGSVTPEKQILSYKPQRIFPNYDGTVQQYLENASKDALSTSSWFFEEVTKRLNLHRLLESNVNDLSGGELQKLYIAATLAKEADLYVLDAPSSYLDVEERYIVAKAIKRVTRERKAVTFIIDHDLSIHDYIADRIIVFKGEPEKAGLATSPVTLKTGMNEFLRELEVTFRRDAETGRPRVNKIGSYLDRVQKERGDYYS
notes: ABCE1, ABC-type twin-ATPase, Saccharolobus solfataricus; both catalytic glutamates changed to alanine; Carries iron-sulfur clusters (FeSD); also called ABCE1 E238A/E485A; source: E. coli, recombinant (pSA4 plasmid), purified
binding result: binds
